Target: T1, c-Jun residues 1-104 (Rattus norvegicus (Rat), UniProt P17325 1-101, labeled with 35S by in vitro translation)
T1 construct: In vitro translated fragment; also called N-terminal region of c-Jun
T1 sequence: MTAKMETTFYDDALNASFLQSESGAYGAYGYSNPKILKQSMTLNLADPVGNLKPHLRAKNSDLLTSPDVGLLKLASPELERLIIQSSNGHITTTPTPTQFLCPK
Assay: GST pull-down of 35S-labeled in vitro translated c-Jun fragment

- binding result: no binding
B1: GST-Stat3 (1-154) (other)
chain: MAQWNQLQQLDTRYLKQLHQLYSDTFPMELRQFLAPWIESQDWAYAASKESHATLVFHNLLGEIDQQYSRFLQESNVLYQHNLRRIKQFLQSRYLEKPMEIARIVARCLWEESRLLQTAATAAQQGGQANHPTAAVVTEKQQMLEQHLQDVRKR
notes: GST is placed N-terminal because of the pGEX vector; not shown: Glutathione S-transferase (GST) fusion partner of vector pGEX-5X-1 (Pharmacia)

Reference: patent publication US20020197647A1 (ROCKEFELLER UNIVERSITY, published 2002)
